Test results as given in paper PMC9482650, “Quantitative fragmentomics allow affinity mapping of interactomes” (Nature Communications, 2022).

Key:
Experiment in all cases: holdup assay
Design in all cases: key: below the threshold = too weak to quantify, mostly under pKd 3.1 to 4
APBA3_1, O96018 = biological target: T1, APBA3_1, O96018
T1 sequence (O96018 389-490, limits assumed, looked up): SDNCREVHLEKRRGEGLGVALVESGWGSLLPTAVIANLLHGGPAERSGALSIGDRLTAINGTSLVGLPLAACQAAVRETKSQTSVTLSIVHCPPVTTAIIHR

DLG3_2, Q92796 = biological target: T2, DLG3_2, Q92796
T2 sequence (Q92796 221-321, limits assumed, looked up): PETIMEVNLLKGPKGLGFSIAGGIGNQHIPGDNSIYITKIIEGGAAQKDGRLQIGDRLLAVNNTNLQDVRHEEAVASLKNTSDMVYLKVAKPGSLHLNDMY

FRMPD1, Q5SYB0 = biological target: T3, FRMPD1, Q5SYB0
T3 sequence (Q5SYB0 52-145, limits assumed, looked up): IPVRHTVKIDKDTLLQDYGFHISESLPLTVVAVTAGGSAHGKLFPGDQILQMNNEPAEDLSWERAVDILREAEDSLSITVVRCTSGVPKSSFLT

FRMPD2_3, Q68DX3 = biological target: FRMPD2_3, Q68DX3
Chain of FRMPD2_3, Q68DX3 (Q68DX3 1073-1166): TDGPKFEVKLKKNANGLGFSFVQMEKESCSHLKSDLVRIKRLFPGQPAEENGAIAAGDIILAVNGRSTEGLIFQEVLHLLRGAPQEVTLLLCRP

FRMPD4, Q14CM0 = biological target: FRMPD4, Q14CM0
Chain of FRMPD4, Q14CM0 (Q14CM0 67-160): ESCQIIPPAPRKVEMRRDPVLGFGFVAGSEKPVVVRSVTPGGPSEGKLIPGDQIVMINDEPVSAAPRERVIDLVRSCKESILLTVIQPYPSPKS

GORASP1, Q9BQQ3 = biological target: GORASP1, Q9BQQ3
Chain of GORASP1, Q9BQQ3 (Q9BQQ3 1-208): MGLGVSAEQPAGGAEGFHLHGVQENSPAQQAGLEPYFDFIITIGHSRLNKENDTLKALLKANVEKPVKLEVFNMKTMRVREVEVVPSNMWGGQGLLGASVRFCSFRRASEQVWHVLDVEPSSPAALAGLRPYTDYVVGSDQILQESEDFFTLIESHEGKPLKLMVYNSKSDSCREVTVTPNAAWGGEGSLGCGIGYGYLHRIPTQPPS

GRIP1_4, Q9Y3R0 = biological target: T4, GRIP1_4, Q9Y3R0
T4 sequence (Q9Y3R0 467-571, limits assumed, looked up): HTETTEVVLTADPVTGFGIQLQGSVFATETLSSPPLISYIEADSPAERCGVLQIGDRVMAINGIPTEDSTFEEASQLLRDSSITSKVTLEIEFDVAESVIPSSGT

GRIP1_5, Q9Y3R0 = biological target: T5, GRIP1_5, Q9Y3R0
T5 sequence (Q9Y3R0 568-668, limits assumed, looked up): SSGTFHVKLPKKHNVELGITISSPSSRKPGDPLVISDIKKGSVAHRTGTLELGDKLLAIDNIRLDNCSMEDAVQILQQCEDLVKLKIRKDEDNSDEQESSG

GRIP2_7, Q9C0E4 = biological target: GRIP2_7, Q9C0E4
Chain of GRIP2_7, Q9C0E4 (Q9C0E4 934-1023): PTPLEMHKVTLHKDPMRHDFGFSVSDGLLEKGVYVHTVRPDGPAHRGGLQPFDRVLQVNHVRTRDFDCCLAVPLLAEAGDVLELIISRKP

HTRA1, Q92743 = biological target: HTRA1, Q92743
Chain of HTRA1, Q92743 (Q92743 360-477): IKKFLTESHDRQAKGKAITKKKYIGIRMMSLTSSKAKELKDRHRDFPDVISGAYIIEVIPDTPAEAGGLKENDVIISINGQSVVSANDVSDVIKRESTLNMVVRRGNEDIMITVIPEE

HTRA2, O43464 = biological target: HTRA2, O43464
Chain of HTRA2, O43464 (O43464 355-458): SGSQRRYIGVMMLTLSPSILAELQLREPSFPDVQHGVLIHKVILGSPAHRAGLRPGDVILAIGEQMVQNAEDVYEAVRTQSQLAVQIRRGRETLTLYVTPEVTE

HTRA3, P83110 = biological target: T6, HTRA3, P83110
T6 sequence (P83110 354-453, limits assumed, looked up): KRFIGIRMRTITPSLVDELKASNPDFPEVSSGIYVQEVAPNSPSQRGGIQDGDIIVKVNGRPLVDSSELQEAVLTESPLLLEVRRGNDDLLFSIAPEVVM

IL16_3, Q14005 = biological target: IL16_3, Q14005
Chain of IL16_3, Q14005 (Q14005 1107-1207): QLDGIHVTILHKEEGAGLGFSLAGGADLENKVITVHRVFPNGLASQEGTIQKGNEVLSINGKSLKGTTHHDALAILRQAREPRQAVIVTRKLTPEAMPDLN

Inadl_3, Q8NI35 = biological target: Inadl_3, Q8NI35
Chain of Inadl_3, Q8NI35 (Q8NI35 359-469): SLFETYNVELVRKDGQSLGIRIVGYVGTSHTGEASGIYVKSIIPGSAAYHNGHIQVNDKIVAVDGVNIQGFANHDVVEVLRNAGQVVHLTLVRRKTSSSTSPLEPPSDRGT

Inadl_5, Q8NI35 = biological target: Inadl_5, Q8NI35
Chain of Inadl_5, Q8NI35 (Q8NI35 673-780): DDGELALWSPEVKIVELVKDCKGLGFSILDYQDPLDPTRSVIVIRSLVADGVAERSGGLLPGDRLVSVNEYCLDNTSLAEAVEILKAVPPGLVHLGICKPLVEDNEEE

LIMK2, P53671 = biological target: LIMK2, P53671
Chain of LIMK2, P53671 (P53671 143-248): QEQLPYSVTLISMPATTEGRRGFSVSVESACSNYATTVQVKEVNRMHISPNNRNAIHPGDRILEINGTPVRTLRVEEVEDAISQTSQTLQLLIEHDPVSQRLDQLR

LNX1_2, Q8TBB1 = biological target: LNX1_2, Q8TBB1
Chain of LNX1_2, Q8TBB1 (Q8TBB1 371-470): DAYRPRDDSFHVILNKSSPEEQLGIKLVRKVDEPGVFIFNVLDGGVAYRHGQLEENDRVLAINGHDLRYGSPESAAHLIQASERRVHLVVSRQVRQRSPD

MAGI2_2, Q86UL8 = biological target: MAGI2_2, Q86UL8
Chain of MAGI2_2, Q86UL8 (Q86UL8 410-522): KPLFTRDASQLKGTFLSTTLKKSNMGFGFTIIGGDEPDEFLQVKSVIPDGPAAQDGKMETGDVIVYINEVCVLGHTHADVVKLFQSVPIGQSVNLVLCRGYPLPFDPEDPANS

MAGI2_6, Q86UL8 = biological target: MAGI2_6, Q86UL8
Chain of MAGI2_6, Q86UL8 (Q86UL8 1141-1229): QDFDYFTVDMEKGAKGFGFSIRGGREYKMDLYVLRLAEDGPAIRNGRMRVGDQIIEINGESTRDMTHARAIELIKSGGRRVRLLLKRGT

NHERF4_4, Q86UT5 = biological target: NHERF4_4, Q86UT5
Chain of NHERF4_4, Q86UT5 (Q86UT5 464-550): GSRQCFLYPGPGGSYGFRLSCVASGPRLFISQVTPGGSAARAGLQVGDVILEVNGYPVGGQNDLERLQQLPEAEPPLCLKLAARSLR

PDZD2_2, O15018 = biological target: T7, PDZD2_2, O15018
T7 sequence (O15018 329-429, limits assumed, looked up): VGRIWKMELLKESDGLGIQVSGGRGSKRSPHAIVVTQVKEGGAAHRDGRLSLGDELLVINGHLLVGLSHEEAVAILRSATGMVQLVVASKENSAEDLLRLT

PDZD7_3, Q9H5P4 = biological target: T8, PDZD7_3, Q9H5P4
T8 sequence (Q9H5P4 857-944, limits assumed, looked up): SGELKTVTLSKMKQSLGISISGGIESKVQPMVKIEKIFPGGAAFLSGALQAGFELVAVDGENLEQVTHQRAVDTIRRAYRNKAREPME

SIPA1L2, Q9P2F8 = biological target: T9, SIPA1L2, Q9P2F8
T9 sequence (Q9P2F8 945-1036, limits assumed, looked up): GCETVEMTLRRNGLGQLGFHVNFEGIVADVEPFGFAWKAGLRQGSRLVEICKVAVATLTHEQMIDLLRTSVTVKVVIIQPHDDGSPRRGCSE

SNTG2, Q9NY99 = biological target: T10, SNTG2, Q9NY99
T10 sequence (Q9NY99 68-166, limits assumed, looked up): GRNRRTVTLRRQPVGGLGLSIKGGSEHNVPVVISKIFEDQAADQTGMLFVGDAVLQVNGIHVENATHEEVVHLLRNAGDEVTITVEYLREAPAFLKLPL

TJP1_3, Q07157 = biological target: TJP1_3, Q07157
Chain of TJP1_3, Q07157 (Q07157 416-512): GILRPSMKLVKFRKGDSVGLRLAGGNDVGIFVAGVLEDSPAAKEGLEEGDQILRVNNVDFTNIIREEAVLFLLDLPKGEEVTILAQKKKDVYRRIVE

TJP3_3, O95049 = biological target: T11, TJP3_3, O95049
T11 sequence (O95049 375-456, limits assumed, looked up): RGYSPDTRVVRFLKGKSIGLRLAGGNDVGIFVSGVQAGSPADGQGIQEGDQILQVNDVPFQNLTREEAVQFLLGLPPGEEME

[1] = plain residues with an end cap or a label only (N-terminal biotin on a linker: ado-ado)
[2] = plain residues with an end cap or a label only (N-terminal biotin on a linker: ttds)

EDLTKNHDEL [RCN1, Q15293]
pKd (APBA3_1, O96018; [1]): below the threshold | pKd (DLG3_2, Q92796; [1]): below the threshold | pKd (FRMPD1, Q5SYB0; [1]): below the threshold | pKd (FRMPD2_3, Q68DX3; [1]): below the threshold | pKd (FRMPD4, Q14CM0; [1]): 4.09 | pKd (GORASP1, Q9BQQ3; [1]): below the threshold | pKd (GRIP1_4, Q9Y3R0; [1]): below the threshold | pKd (GRIP1_5, Q9Y3R0; [1]): 3.52 | pKd (GRIP2_7, Q9C0E4; [1]): 3.59 | pKd (HTRA1, Q92743; [1]): 3.5 | pKd (HTRA2, O43464; [1]): below the threshold | pKd (HTRA3, P83110; [1]): below the threshold | pKd (IL16_3, Q14005; [1]): below the threshold | pKd (Inadl_3, Q8NI35; [1]): below the threshold | pKd (Inadl_5, Q8NI35; [1]): below the threshold | pKd (LIMK2, P53671; [1]): below the threshold | pKd (LNX1_2, Q8TBB1; [1]): 3.47 | pKd (MAGI2_2, Q86UL8; [1]): below the threshold | pKd (MAGI2_6, Q86UL8; [1]): 3.54 | pKd (NHERF4_4, Q86UT5; [1]): 4.01 | pKd (PDZD2_2, O15018; [1]): 3.62 | pKd (PDZD7_3, Q9H5P4; [1]): below the threshold | pKd (SIPA1L2, Q9P2F8; [1]): below the threshold | pKd (SNTG2, Q9NY99; [1]): below the threshold | pKd (TJP1_3, Q07157; [1]): 3.48 | pKd (TJP3_3, O95049; [1]): below the threshold

NYWPGKETQL [SLCO1C1, Q9NYB5]
pKd (APBA3_1, O96018; [2]): below the threshold | pKd (DLG3_2, Q92796; [2]): 4.88 | pKd (FRMPD1, Q5SYB0; [2]): below the threshold | pKd (FRMPD2_3, Q68DX3; [2]): below the threshold | pKd (FRMPD4, Q14CM0; [2]): 4.35 | pKd (GORASP1, Q9BQQ3; [2]): below the threshold | pKd (GRIP1_4, Q9Y3R0; [2]): below the threshold | pKd (GRIP1_5, Q9Y3R0; [2]): below the threshold | pKd (GRIP2_7, Q9C0E4; [2]): below the threshold | pKd (HTRA1, Q92743; [2]): below the threshold | pKd (HTRA2, O43464; [2]): below the threshold | pKd (HTRA3, P83110; [2]): below the threshold | pKd (IL16_3, Q14005; [2]): below the threshold | pKd (Inadl_3, Q8NI35; [2]): below the threshold | pKd (Inadl_5, Q8NI35; [2]): below the threshold | pKd (LIMK2, P53671; [2]): below the threshold | pKd (LNX1_2, Q8TBB1; [2]): below the threshold | pKd (MAGI2_2, Q86UL8; [2]): 4.52 | pKd (MAGI2_6, Q86UL8; [2]): 4.42 | pKd (NHERF4_4, Q86UT5; [2]): below the threshold | pKd (PDZD2_2, O15018; [2]): below the threshold | pKd (PDZD7_3, Q9H5P4; [2]): 4.62 | pKd (SIPA1L2, Q9P2F8; [2]): below the threshold | pKd (SNTG2, Q9NY99; [2]): 5.28 | pKd (TJP1_3, Q07157; [2]): below the threshold | pKd (TJP3_3, O95049; [2]): below the threshold

CNTVTVETVV [MAS1, P04201]
pKd (APBA3_1, O96018; [2]): below the threshold | pKd (DLG3_2, Q92796; [2]): 4.53 | pKd (FRMPD1, Q5SYB0; [2]): below the threshold | pKd (FRMPD2_3, Q68DX3; [2]): 3.57 | pKd (FRMPD4, Q14CM0; [2]): below the threshold | pKd (GORASP1, Q9BQQ3; [2]): below the threshold | pKd (GRIP1_4, Q9Y3R0; [2]): below the threshold | pKd (GRIP1_5, Q9Y3R0; [2]): 3.55 | pKd (GRIP2_7, Q9C0E4; [2]): below the threshold | pKd (HTRA1, Q92743; [2]): 3.61 | pKd (HTRA2, O43464; [2]): below the threshold | pKd (HTRA3, P83110; [2]): below the threshold | pKd (IL16_3, Q14005; [2]): below the threshold | pKd (Inadl_3, Q8NI35; [2]): 3.75 | pKd (Inadl_5, Q8NI35; [2]): below the threshold | pKd (LIMK2, P53671; [2]): 3.7 | pKd (LNX1_2, Q8TBB1; [2]): below the threshold | pKd (MAGI2_2, Q86UL8; [2]): below the threshold | pKd (MAGI2_6, Q86UL8; [2]): below the threshold | pKd (NHERF4_4, Q86UT5; [2]): below the threshold | pKd (PDZD2_2, O15018; [2]): 3.59 | pKd (PDZD7_3, Q9H5P4; [2]): 4.27 | pKd (SIPA1L2, Q9P2F8; [2]): below the threshold | pKd (SNTG2, Q9NY99; [2]): 3.93 | pKd (TJP1_3, Q07157; [2]): below the threshold | pKd (TJP3_3, O95049; [2]): 3.7
